For test [1], the target named is T1, human HGF (human, UniProt P14210 32-728).
T1 construct: also called hepatocyte growth factor
The test is described as follows: SPR (ProteOn). The protocol: SPR was measured using a ProteOn instrument (BioRad) and measurement was performed according standard procedures known to the person skilled in the art.

For test [2], the target named is T1, human HGF. Briefly: cMet receptor competition ELISA; 5 nM human HGF, immobilised human cMet. The source says: (§1) Such assays are well known to the person skilled in the art. For designed ankyrin repeat domains with binding specificity to VEGF-A, a quantitative sandwich enzyme immunoassay technique was used according to the manufacturer (VEGF-A Quantikine kit DVE00, R&D Systems). A monoclonal antibody specific for VEGF-A was pre-coated onto a microplate. VEGF-A standards and mixtures of VEGF-A (20 pM) and Protein #18, #19, or #20 at varying concentrations were applied to the wells and any free VEGF-A present (i.e. not bound to the designed ankyrin repeat domain) is bound by the immobilized antibody. After washing away any unbound substances, an enzyme-linked polyclonal antibody specific for VEGF-A is added to the wells. Following a wash to remove any unbound antibody-enzyme reagent, a substrate solution is added to the wells and color develops in proportion to the amount of VEGF-A bound in the initial step. The color development is stopped and the intensity of the color is measured. […] IC₅₀ values were calculated from such titration curves obtained as described above using Graph Pad Prism software and standard procedures known to the person skilled in the art. For designed ankyrin repeat domains with binding specificity to HGF, a cMet receptor competition assay was performed. For that purpose, 5 nM of human cMet receptor in PBS were immobilized on Maxisorp plates overnight at 4° C. After washing with PBS 0.05% TWEEN 20, the plate was blocked for 2 h with shaking at 300 rpm using PBS containing 0.05% TWEEN 20 and 0.25% Casein at RT. A constant concentration of 5 nM human HGF was pre-incubated for 30 min at RT with a 1000 nM-1 pM of Proteins #23, #26, #28, and #29 (1:4 dilution series each) on a dilution plate in PBS 0.05% TWEEN 20. After washing of the ELISA plate with PBS 0.05% TWEEN, pre-incubated samples were transferred to the ELISA plate and plate was incubated for 2 h at RT with shaking at 300 rpm. After washing with PBS 0.25% TWEEN, 200 ng/ml anti human HGF antibody was added for 1 h at RT with shaking at 300 rpm. After washing with PBS 0.05% TWEEN, 100 ng/ml HRP conjugated polyclonal anti HGF species antibody was added for 30 min at RT with shaking at 300 rpm. Detection was using 1:3 diluted BM blue POD (Roche).
A general note: An ELISA detects its analyte on a solid surface through an enzyme-linked reagent.

The target of test [3] is T2, human VEGF-A (human, UniProt P15692-4 27-191, limits assumed).
T2 construct: Recombinant, bought or produced in CHO or Pichia pastoris; also called hVEGF-A
Briefly: VEGF-A Quantikine competition ELISA; competitor: immobilised anti-VEGF-A monoclonal antibody.
Description: as §1, with “After washing with PBS 0.05% TWEEN, 100 ng/ml HRP conjugated polyclonal anti HGF species antibody was added for 30 min at RT with shaking at 300 rpm. Detection was using 1:3 diluted BM blue POD (Roche).” left out

Another test has as its target T3, human serum albumin (human, UniProt P02768 25-609).
T3 construct: For SEC-MALS purified from CSL Behring 20% solution; also called HSA; SA (human)
Briefly: ELISA, immobilised human serum albumin. The protocol: 100 μl or 50 μl of 20 nM target (VEGF-A, HGF, or serum albumin) in PBS per well were immobilized in a Maxisorp plate (Nunc, Denmark) overnight at 4° C. After washing 5 times with 300 μl PBST (PBS supplemented with 0.1% Tween 20), the wells were blocked with 300 μl PBST-C (PBST supplemented with 0.25% casein) for 2 h at room temperature with shaking at 450 rpm on a Titramax 1000 shaker (Heidolph, Germany). […] After washing 5 times as described above, bound anti-designed ankyrin repeat domain antibody was detected using 100 μl or 50 μl/well goat anti-rabbit IgG-HRP conjugate in PBST-C for 1 h at room temperature with shaking at 450 rpm. After washing 5 times as described above, the ELISA was then developed using 100 μl BM soluble blue POD substrate (Roche, Switzerland), diluted 1:4 in water. The reaction was stopped after 5 min using 100 μl 1 M H₂SO₄. The OD (OD 450 nm-OD 620 nm) was then recorded.
Cynomolgus monkey VEGF-A is identical to human VEGF-A and was thus not tested separately.

Test [4] deals with T2, human VEGF-A. Briefly: ELISA; species of VEGF-A not stated.
Test [5] has as its target T1, human HGF. The test is described as follows: ELISA, EC50 comparison.
The target of test [6] is T2, human VEGF-A. Briefly: ELISA, EC50 comparison.
In test [7] the target is T1, human HGF. The test is described as follows: ELISA; species of HGF not stated.

T2 sequence (P15692 other isoform, or with tags, fused parts or gaps limits assumed): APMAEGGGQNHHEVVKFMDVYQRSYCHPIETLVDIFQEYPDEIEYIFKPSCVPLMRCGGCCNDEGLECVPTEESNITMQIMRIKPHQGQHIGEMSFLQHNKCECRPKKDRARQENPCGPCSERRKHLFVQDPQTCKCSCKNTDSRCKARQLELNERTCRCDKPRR
T1 sequence (P14210 32-728 limits assumed): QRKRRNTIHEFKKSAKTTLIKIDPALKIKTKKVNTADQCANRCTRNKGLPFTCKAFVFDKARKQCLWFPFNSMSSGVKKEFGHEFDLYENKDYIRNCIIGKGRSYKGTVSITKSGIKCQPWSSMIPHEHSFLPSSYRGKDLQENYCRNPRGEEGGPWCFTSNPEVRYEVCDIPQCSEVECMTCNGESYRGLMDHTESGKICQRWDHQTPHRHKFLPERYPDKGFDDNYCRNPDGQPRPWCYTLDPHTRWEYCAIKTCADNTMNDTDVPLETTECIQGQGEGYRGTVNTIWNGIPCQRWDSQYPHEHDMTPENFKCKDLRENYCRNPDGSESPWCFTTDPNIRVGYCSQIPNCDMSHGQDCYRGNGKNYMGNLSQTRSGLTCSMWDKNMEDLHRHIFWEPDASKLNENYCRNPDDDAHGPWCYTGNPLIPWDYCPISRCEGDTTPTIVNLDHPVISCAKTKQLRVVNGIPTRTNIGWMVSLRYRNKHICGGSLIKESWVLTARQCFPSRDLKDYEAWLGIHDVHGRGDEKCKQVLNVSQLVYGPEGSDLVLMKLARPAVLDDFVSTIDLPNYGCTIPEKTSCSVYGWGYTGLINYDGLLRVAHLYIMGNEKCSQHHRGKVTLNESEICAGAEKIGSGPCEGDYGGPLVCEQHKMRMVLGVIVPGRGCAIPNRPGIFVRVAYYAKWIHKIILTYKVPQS
T3 sequence (P02768 25-609 limits assumed): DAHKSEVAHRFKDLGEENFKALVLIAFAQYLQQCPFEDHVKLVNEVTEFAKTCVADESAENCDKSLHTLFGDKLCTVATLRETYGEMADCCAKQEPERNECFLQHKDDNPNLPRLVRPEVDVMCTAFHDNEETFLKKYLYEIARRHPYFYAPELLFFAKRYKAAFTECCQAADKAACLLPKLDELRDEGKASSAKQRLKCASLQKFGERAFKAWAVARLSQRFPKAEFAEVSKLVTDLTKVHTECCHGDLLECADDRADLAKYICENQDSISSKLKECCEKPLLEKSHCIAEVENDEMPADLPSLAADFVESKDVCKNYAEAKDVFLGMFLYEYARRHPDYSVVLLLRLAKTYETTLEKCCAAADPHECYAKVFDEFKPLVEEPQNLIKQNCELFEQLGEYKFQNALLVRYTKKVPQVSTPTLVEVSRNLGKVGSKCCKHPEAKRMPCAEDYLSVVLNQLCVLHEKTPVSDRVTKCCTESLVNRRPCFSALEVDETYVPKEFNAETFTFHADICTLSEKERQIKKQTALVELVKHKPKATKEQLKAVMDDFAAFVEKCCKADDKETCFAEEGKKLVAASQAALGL

B1: Protein #29 (designed binder)
chain: MRGSHHHHHHGSDLGKKLLEAARAGQDDEVRILMANGADVNAKYEDGLTPLHLAAFYGHLEIVEVLLKHGADVNATDAWGHTPLHLAAYYGHLEIVEVLLKYGADVNTHDKEGMTALHLAALTGHLEIVEVLLKNGADVNAQDKFGKTAFDISIDNGNEDLAEILQKAA
Regarding B1, in the test with human HGF [1], the Kd (usually the constant that tells how readily two partners part at equilibrium) was found to be 0.025 nM. For the same molecule, the IC50 (usually the point on the concentration scale where inhibition reaches its midpoint) with human HGF [2] turned out to be 1.36 nM.

B2: Protein #20 (designed binder)
chain: MRGSHHHHHHGSDLDKKLLEAARAGQDDEVRILLKAGADVNAKDSTGWTPLHLAAPWGHPEIVEVLLKAGADVNAKDFQGWTPLHLAAAVGHLEIVEVLLKAGADVNAQDKSGKTPADLAADAGHEDIAEVLQKAA
In the test with human VEGF-A [3], B2 displayed an IC50 of 0.004 nM.

B3: Protein #18 (designed binder)
chain: MRGSHHHHHHGSDLDKKLLEAARAGQDDEVRILLKAGADVNAKDSTGWTPLHLAAPWGHPEIVEVLLKAGADVNAKDFQGWTPLHLAAAAGHLEIVEVLLKAGADVNAQDKSGKTPADLAADAGHEDIAEVLQKAA
The molecule B3 registered an IC50 with human VEGF-A [3] of 0.013 nM.

B4: Protein #19 (designed binder)
chain: MRGSHHHHHHGSDLGKKLLEAARAGQDDEVRILLKAGADVNAKDSTGWTPLHLAAPWGHPEIVEVLLKAGADVNAKDFQGWTPLHLAAAAGHLEIVEVLLKAGADVNAQDKSGKTPADLAADAGHEDIAEVLQKAA
B4 displayed an IC50 with human VEGF-A [3] of 0.013 nM.

B5: Protein #61 (designed binder)
chain: MRGSHHHHHHGSDLGKKLLEAARAGQDDEVRELLKAGADVNAKDYFSHTPLHLAARNGHLKIVEVLLKAGADVNAKDFAGKTPLHLAANEGHLEIVEVLLKAGADVNAQDIFGKTPADIAADAGHEDIAEVLQKAAGSPTPTPTTPTPTPTTPTPTPTGSDLDKKLLEAARAGQDDEVRILLKAGADVNAKDSTGWTPLHLAAPWGHPEIVEVLLKAGADVNAKDFQGWTPLHLAAAAGHLEIVEVLLKAGADVNAQDKSGKTPADLAADAGHEDIAEVLQKAA
As for B5, in the test with human serum albumin, the response was half-maximal at 0.322 nM (EC50).

B6: Protein #60 (designed binder)
chain: MRGSHHHHHHGSDLGKKLLEAARAGQDDEVRELLKAGADVNAKDYFSHTPLHLAARNGHLKIVEVLLKAGADVNAKDFAGKTPLHLAANEGHLEIVEVLLKAGADVNAQDIFGKTPADIAADAGHEDIAEVLQKAAGSPTPTPTTPTPTPTTPTPTPTGSDLGKKLLEAARAGQDDEVRILLKAGADVNAKDRYGDTPLHLAADIGHLEIVEVLLKAGADVNAEDYFGNTPLHLAASYGHLEIVEVLLKAGADVNAKDDYGNTPLHLAANTGHLEIVEVLLKAGADVNAQDKSGKTPADLAADAGHEDIAEVLQKAA
Turning to B6, the EC50 (as a rule, the concentration at which the effect is half-maximal) with human serum albumin was found to be 0.225 nM.

B7: Protein #107 (designed binder)
chain: MRGSHHHHHHGSDLGKKLLEAARAGQDDEVRELLKAGADVNAKDYFSHTPLHLAARNGHLKIVEVLLKAGADVNAKDFAGKTPLHLAANDGHLEIVEVLLKAGADVNAQDIFGKTPADIAADAGHEDIAEVLQKAAGSPTPTPTTPTPTPTTPTPTPTGSDLDKKLLEAARAGQDDEVRILLKAGADVNAKDSTGWTPLHLAAPWGHPEIVEVLLKAGADVNAKDYQGWTPLHLAAAVGHLEIVEVLLKAGADVNAQDKSGKTPADLAADAGHEDIAEVLQKAAGSPTPTPTTPTPTPTTPTPTPTGSDLGKKLLEAARAGQDDEVRILLKAGADVNAKDRYGDTPLHLAADAGHLKIVEVLLKAGADVNAEDYFGNTPLHLAASAGHLEIVEVLLKAGADVNAKDDAGNTPLHLAANTGHLKIVEVLLKAGADVNAQDKSGKTPADLAADAGHEDIAEVLQKAAGSPTPTPTTPTPTPTTPTPTPTGSDLGKKLLEAARAGQDDEVRELLKAGADVNAKDYFSHTPLHLAARNGHLKIVEVLLKAGADVNAKDFAGKTPLHLAANDGHLEIVEVLLKAGADVNAQDIFGKTPADIAADAGHEDIAEVLQKAA
Regarding B7, the EC50 with human VEGF-A [4] was determined as 0.073 nM; in the test with human HGF [7], 0.107 nM. The “factor more potent (EC50) than Protein #69” value with human HGF [5] stood at 1.1 fold; with human VEGF-A [6] it was 1.4 fold.

B8: Protein #69 (designed binder)
chain: MRGSHHHHHHGSDLGKKLLEAARAGQDDEVRILMANGADVNAKDYFSHTPLHLAARNGHLKIVEVLLKAGADVNAKDFAGKTPLHLAANDGHLEIVEVLLKHGADVNAQDIFGKTPADIAADAGHEDIAEVLQKLGSPTPTPTTPTPTPTTPTPTPTGSRSDLDKKLLEAARAGQDDEVRILLKAGADVNAKDYLGWTPLHLAAHEGHLEIVEVLLKAGADVNAKDVSGYTPLHLAAADGHLEIVEVLLKAGADVNAKDNTGWTPLHLSADLGHLEIVEVLLKAGADVNAQDKFGKTAFDISIDNGNEDLAEILQKLGSPTPTPTTPTPTPTTPTPTPTGSRSDLGKKLLEAARAGQDDEVRILLKAGADVNAKDRYGDTPLHLAADAGHLKIVEVLLKAGADVNAEDYFGNTPLHLAASAGHLEIVEVLLKAGADVNAKDDAGNTPLHLAANTGHLKIVEVLLKAGADVNAQDKSGKTPADLAADAGHEDIAEVLQKLN
B8: the results for the EC50 with human VEGF-A [4] and with human HGF [7] were 0.102 nM and 0.117 nM, respectively. In addition, the “factor more potent (EC50) than Protein #71” value with human HGF [5] was determined as 1.3 fold; with human VEGF-A [6], 2 fold.

B9: Protein #71 (designed binder)
chain: MRGSHHHHHHGSDLGKKLLEAARAGQDDEVRILMANGADVNAKDYFSHTPLHLAARNGHLKIVEVLLKAGADVNAKDFAGKTPLHLAANDGHLEIVEVLLKHGADVNAQDIFGKTPADIAADAGHEDIAEVLQKLGGGGSGGGGSGGGGSGGGGSRSDLDKKLLEAARAGQDDEVRILLKAGADVNAKDYLGWTPLHLAAHEGHLEIVEVLLKAGADVNAKDVSGYTPLHLAAADGHLEIVEVLLKAGADVNAKDNTGWTPLHLSADLGHLEIVEVLLKAGADVNAQDKFGKTAFDISIDNGNEDLAEILQKLGGGGSGGGGSGGGGSGGGGSRSDLGKKLLEAARAGQDDEVRILLKAGADVNAKDRYGDTPLHLAADAGHLKIVEVLLKAGADVNAEDYFGNTPLHLAASAGHLEIVEVLLKAGADVNAKDDAGNTPLHLAANTGHLKIVEVLLKAGADVNAQDKSGKTPADLAADAGHEDIAEVLQKLN
In the case of B9, the EC50 was determined as 0.205 nM with human VEGF-A [4] and 0.179 nM with human HGF [7].

(Values after patent publication US20160289285A1 (Molecular Partners, published 2016).)
